# Measurements published in article PMC4270772 (PLoS Pathogens, 2014).
# Target: T1, recombinant trimeric gp140 from HIV-1 92UG037 (clade A) (HIV-1 92UG037 (clade A), UniProt Q5VFI3, strain)
# T1 construct: source: provided by S. Jeffs (Imperial College London)
# Assay: ELISA
# Conditions: both partners purified
binder,measurement,value
3E3 with the three germ line CDR2 residues re-inserted (VHH) VHH: EVQLVESGGGLVQPGGSLRLSCAASQFTLESYAIGWFRQAPGKDSEGVACISSSDGSTYYADSVKGRFTISRDNAKNTVYLQMESLKPEDTAVYHCATSGAGSYCTLRAFGSWGQGTQVTVSS,binding result,no binding
